Results published in US6218527.

How the values were obtained:
[1] = target: T1, ABF1 (Arabidopsis thaliana) (UniProt Q9M7Q5); experiment: one_hybrid
T1 sequence: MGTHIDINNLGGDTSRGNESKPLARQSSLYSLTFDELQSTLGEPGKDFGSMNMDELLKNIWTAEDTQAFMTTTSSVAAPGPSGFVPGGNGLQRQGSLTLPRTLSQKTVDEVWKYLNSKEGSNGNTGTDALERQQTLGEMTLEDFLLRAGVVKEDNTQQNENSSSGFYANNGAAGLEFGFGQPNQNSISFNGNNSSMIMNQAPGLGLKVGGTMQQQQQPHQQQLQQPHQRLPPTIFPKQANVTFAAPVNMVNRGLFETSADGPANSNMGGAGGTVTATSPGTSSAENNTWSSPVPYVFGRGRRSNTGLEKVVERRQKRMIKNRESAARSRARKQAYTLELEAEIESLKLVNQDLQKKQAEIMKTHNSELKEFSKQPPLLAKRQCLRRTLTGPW

[2] = system: ABF2 (Arabidopsis thaliana); experiment: one_hybrid

Em1a trimer reporter
activity (fold over control vector) [1]: 6
activity (fold over background) [2]: 2
